Assay results published in US8383581B2, “Short-chain peptides as parathyroid hormone (PTH) receptor agonist” (Cadila Healthcare Limited, priority 2009, dated 2013).
*1 amine or outer side, *2 acyl side, *3 side chain or, on linkers, in order; H or OH if unused. Where no end group is shown, it is not given here. [ ]: non-standard residue; d: D form. αMe‑APPA = 2-amino-2-methyl-5-phenylpentanoic acid, C[C@@](CCCc1ccccc1)(N[*:1])C(=O)[*:2]; Bip(2'-Et-4'-OMe) = CCc1cc(OC)ccc1-c1ccc(C[C@H](N)C(=O)O)cc1; αMePhe(2,6-F2) = C[C@](N)(Cc1c(F)cccc1F)C(=O)O; αMePhe(2-F) = C[C@](N)(Cc1ccccc1F)C(=O)O; αMeW = C[C@](N)(Cc1c[nH]c2ccccc12)C(=O)O; αMeNle = CCCC[C@](C)(N[*:1])C(=O)[*:2]; αMe‑Bip(OMe) = α-methylated Bip(OMe); hhPhe = N[C@@H](CCCc1ccccc1)C(=O)O; hArg = N=C(N)NCCCC[C@H](N)C(=O)O; hCit = NC(=O)NCCCC[C@H](N)C(=O)O; αMeF = C[C@](N)(Cc1ccccc1)C(=O)O; αMeV = CC(C)[C@](C)(N)C(=O)O; αMeM = CSCC[C@](C)(N)C(=O)O; Nle = CCCC[C@H](N)C(=O)O; Ac5c = NC1(C(=O)O)CCCC1; Ac3c = NC1(C(=O)O)CC1; Aib = CC(C)(N)C(=O)O

T1: rat PTH-1R (rat PTHR endogenously expressed on UMR-106 rat osteosarcoma cells) (rat, UniProt P25961 27-591)
T1 sequence (looked up): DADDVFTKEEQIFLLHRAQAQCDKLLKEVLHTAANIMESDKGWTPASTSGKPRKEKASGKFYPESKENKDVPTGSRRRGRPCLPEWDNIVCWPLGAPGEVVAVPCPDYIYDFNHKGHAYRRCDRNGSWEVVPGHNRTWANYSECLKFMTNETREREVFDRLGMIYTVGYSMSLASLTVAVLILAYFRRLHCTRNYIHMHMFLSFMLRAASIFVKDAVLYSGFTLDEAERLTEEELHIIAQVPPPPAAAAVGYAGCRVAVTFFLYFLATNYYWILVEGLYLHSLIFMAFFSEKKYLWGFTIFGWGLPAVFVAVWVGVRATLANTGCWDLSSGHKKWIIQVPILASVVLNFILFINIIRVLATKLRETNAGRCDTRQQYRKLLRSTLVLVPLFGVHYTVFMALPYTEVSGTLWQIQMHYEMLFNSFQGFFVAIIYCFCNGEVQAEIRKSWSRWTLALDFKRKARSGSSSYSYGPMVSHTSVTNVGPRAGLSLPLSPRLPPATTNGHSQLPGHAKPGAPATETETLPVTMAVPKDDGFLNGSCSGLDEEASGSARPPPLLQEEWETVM


target: T1, rat PTH-1R (rat PTHR endogenously …); assay: cell-based or functional assay

Binder | cAMP released with respect to control, 1 nM peptide, UMR-106 cells | cAMP released with respect to control, 10 nM peptide, UMR-106 cells | cAMP released with respect to control, 100 nM peptide, UMR-106 cells
[Aib]V[Aib]EIQ[αMePhe(2,6-F2)][Nle]HQ[hCit][Aib][αMePhe(2,6-F2)][Bip(2'-Et-4'-OMe)][hhPhe] [Seq. ID. 872] | 19 percent of control | 42 percent of control | 59 percent of control
[Aib]V[Aib]EIQ[αMePhe(2,6-F2)][Nle]HQ[αMePhe(2,6-F2)][Aib][Aib][Bip(2'-Et-4'-OMe)][hhPhe] [Seq. ID. 886] | 31 percent of control | 72 percent of control | 100 percent of control
[Aib]V[Aib]EIQL[Nle]HQ[hArg]A[hArg][αMe‑Bip(OMe)][hhPhe] [Seq. ID. 899] | 38 percent of control | 91 percent of control | 120 percent of control
V[Aib]V[Aib]EIQL[Nle]HQ[hArg]A[hArg][Bip(2'-Et-4'-OMe)][αMe‑APPA] [Seq. ID. 905] | 39 percent of control | 104 percent of control | 120 percent of control
V[Ac5c]V[Aib]EIQL[αMeNle]HQ[hArg]A[hArg][Bip(2'-Et-4'-OMe)][αMe‑APPA] [Seq. ID. 925] | 16 percent of control | 41 percent of control | 52 percent of control
[Ac3c]V[Aib]EIQ[αMePhe(2,6-F2)][Nle]HQ[hArg][Aib]K[αMeF] [Seq. ID. 41] | 26 percent of control | 79 percent of control | 97 percent of control
[αMeV][Ac5c]V[Aib]EIQL[αMeM]HQ[hArg]A[hArg][Bip(2'-Et-4'-OMe)][αMe‑APPA] [Seq. ID. 926] | 18 percent of control | 51 percent of control | 72 percent of control
V[Ac3c]V[Aib]EIQL[αMeNle]HQ[hArg]A[hArg][αMePhe(2-F)][αMe‑APPA] [Seq. ID. 935] | 38 percent of control | 102 percent of control | 117 percent of control
[Aib]V[Aib]EIQL[αMeM]HQ[hArg]A[hArg][αMeW][hhPhe] [Seq. ID. 942] | 29 percent of control | 52 percent of control | 69 percent of control
V[Ac3c]V[Aib]EIQL[αMeM]HQ[hArg]A[hArg][αMeW][αMe‑APPA] [Seq. ID. 950] | 26 percent of control | 67 percent of control | 81 percent of control
[αMeV][Ac5c]V[Aib]EIQL[αMeM]HQ[hArg]A[hArg][αMeW][αMe‑APPA] [Seq. ID. 954] | 36 percent of control | 88 percent of control | 116 percent of control
[Ac5c]V[Aib]EIQ[αMePhe(2,6-F2)][Nle]HQ[hArg]AK[αMeF] [Seq. ID. 49] | 16 percent of control | 56 percent of control | 73 percent of control
